Results reported in patent US20030078191A1.

Legend:
Assay in all cases: cell-based or functional assay
[1] = target: Gal4ad-ZipA(35-185) fusion (pGAD424 fusion) (Escherichia coli)
[2] = target: Gal4ad-ZipA(35-284) fusion (pGAD424 fusion) (Escherichia coli)
[3] = target: Gal4ad-ZipA(185-302) fusion (pGAD424 fusion) (Escherichia coli)
[4] = target: Gal4ad-ZipA(62-328) fusion (pGAD424 fusion) (Escherichia coli)
[5] = target: Gal4ad-ZipA(185-328) fusion (pGAD424 fusion) (Escherichia coli) (UniProt P77173)
[6] = target: Gal4 activation domain alone (pGAD424 vector, no fusion) (UniProt P04386)
Chain of Gal4 activation domain alone (pGAD424 vector, no fusion) (P04386 768-881 limits assumed): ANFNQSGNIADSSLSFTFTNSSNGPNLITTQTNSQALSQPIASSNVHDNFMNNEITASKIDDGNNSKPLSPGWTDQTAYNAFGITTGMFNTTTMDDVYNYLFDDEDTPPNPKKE

Chain of Gal4ad-ZipA(35-284) fusion (pGAD424 fusion) (Escherichia coli) (P04386 768-881): as the sequence (P04386 768-881 limits assumed) above
Chain of Gal4ad-ZipA(62-328) fusion (pGAD424 fusion) (Escherichia coli) (P04386 768-881): as the sequence (P04386 768-881 limits assumed) above
Chain of Gal4ad-ZipA(35-185) fusion (pGAD424 fusion) (Escherichia coli) (P04386 768-881): as the sequence (P04386 768-881 limits assumed) above
Chain of Gal4ad-ZipA(185-302) fusion (pGAD424 fusion) (Escherichia coli) (P04386 768-881): as the sequence (P04386 768-881 limits assumed) above

Gal4 DNA-binding domain alone (pAS2-1 vector, no fusion) (from UniProt P04386 1-147)
beta-galactosidase (lacZ reporter) activity, MUG fluorescence, yeast two-hybrid [1]: 930 units
beta-galactosidase (lacZ reporter) activity, MUG fluorescence, yeast two-hybrid [2]: 832 units
beta-galactosidase (lacZ reporter) activity, MUG fluorescence, yeast two-hybrid [3]: 1120 units
beta-galactosidase (lacZ reporter) activity, MUG fluorescence, yeast two-hybrid [4]: 743 units
beta-galactosidase (lacZ reporter) activity, MUG fluorescence, yeast two-hybrid [5]: 877 units
beta-galactosidase (lacZ reporter) activity, MUG fluorescence, yeast two-hybrid [6]: 621 units
